According to US20080118504A1 (University of California, published 2008):
Substitutions are numbered along the chain they refer to.

B1: soluble MD-2 wild type (human MD-2 with C-terminal His-tag, from insect cells) (other)
chain: EAQKQYWVCNSSDASISYTYCDKMQYPISINVNPCIELKGSKGLLHIFYIPRRDLKQLYFNLYITVNTMNLPKRKEVICRGSDDDYSFCRALKGETVNTTISFSFKGIKFSKGKYKCVVEAISGSPEEMLFCLEFVILHQPNSN
notes: Expressed with the gp64 signal peptide in place of its own; The purified protein is a mixture of monomer and disulfide-linked oligomers; also called sMD-2; sMD-2 WT; not shown: C-terminal V5/His tag of the vector (pBlueBac4.5/V5-His or pBac11)
B2: soluble MD-2 alanine replacement mutant 127-131 (other)
chain: B1 chain with S111A, K112A, G113A, K114A, Y115A
notes: Expressed as a monomer; also called mutant SKGKY; not shown: C-terminal V5/His tag of the vector

Experiments:
[1] = target: T1, TLR4 containing N-terminal HA-tag, stably transfected in CHO (EL1) cells (UniProt O00206 24-839, limits assumed); assay: FACS with anti-His and anti-HA on TLR4 transfected EL-1 (CHO) cells, receptor numbers from a microbead standard curve
T1 construct: whole, on cells; also called membrane TLR4; TLR4 transfected EL-1 cells; not shown: N-terminal HA-tag
Method: (§1) LPS activation increased with increasing MD-2 levels on the cell surface. TLR4 transfected EL-1 cells (a CHO cell line stably transfected with NF-κB/CD25 reporter plasmid) were incubated with various amount of soluble MD-2 for 20 min. The amount of soluble MD-2 that bound to TLR4 transfected cells as well as the TLR4 expression level were assayed by FACS analysis using antibody to His-tag and HA-tag, respectively. The MD-2 and TLR4 receptor numbers were calculated by converting mean channel number (MCN) of fluorescence intensity using the standard curve generated with Simply Cellular Microbeads. The cells were also activated with 100 ng/ml LPS and NF-κB activation assayed by FACS analysis of surface CD25 expression.
(§2) Various concentrations of sMD-2, plotted on the x-axis, was added to CHO (EL1) cells stably transfected with TLR4. The amount of TLR4 and MD-2 on the cell surface was analyzed by FACS using anti-HA tag and anti-His tag antibody, respectively. The receptor numbers plotted on the left Y-axis were calculated from mean channel number (MCN) and the standard curves generated by simply cellular microbeads. The cells were also activated with 100 ng/ml of LPS.

[2] = target: T1, TLR4 containing N-terminal HA-tag, …; assay: FACS with anti-His and anti-HA on TLR4 transfected EL-1 (CHO) cells, receptor numbers from a microbead standard curve; 0.5 nM sMD-2, 20 min
Method: as §1, §2

[3] = target: T1, TLR4 containing N-terminal HA-tag, …; assay: FACS with anti-His tag of purified sMD-2 on TLR4 transfected EL1 (CHO) cells
Method: To determine sMD-2 mutants binding to TLR4, the purified proteins were added to TLR4 transfected EL1 cells, washed off excess protein after 15 min or overnight incubation, stained with anti-His tag antibody and analyzed by FACS. FIG. 10 illustrates data showing LPS activation of sMD-2. TLR4 transfected CHO cells harboring CD25 reporter plasmids were activated with 100 ng/ml LPS in the absence and presence of 5 ug/ml of sMD-2 and the NF-κB activation was measured by FACS analysis of CD25 surface expression (MCN) using anti-CD25-PE. […] None of mutants with mostly oligomers remained in association to TLR4 cells after 16 hr. The unglycosylated MD-2 bound normally to TLR4 cells after 15 min but the binding was reduced after 16 hr.

T1 sequence (O00206 24-839 limits assumed): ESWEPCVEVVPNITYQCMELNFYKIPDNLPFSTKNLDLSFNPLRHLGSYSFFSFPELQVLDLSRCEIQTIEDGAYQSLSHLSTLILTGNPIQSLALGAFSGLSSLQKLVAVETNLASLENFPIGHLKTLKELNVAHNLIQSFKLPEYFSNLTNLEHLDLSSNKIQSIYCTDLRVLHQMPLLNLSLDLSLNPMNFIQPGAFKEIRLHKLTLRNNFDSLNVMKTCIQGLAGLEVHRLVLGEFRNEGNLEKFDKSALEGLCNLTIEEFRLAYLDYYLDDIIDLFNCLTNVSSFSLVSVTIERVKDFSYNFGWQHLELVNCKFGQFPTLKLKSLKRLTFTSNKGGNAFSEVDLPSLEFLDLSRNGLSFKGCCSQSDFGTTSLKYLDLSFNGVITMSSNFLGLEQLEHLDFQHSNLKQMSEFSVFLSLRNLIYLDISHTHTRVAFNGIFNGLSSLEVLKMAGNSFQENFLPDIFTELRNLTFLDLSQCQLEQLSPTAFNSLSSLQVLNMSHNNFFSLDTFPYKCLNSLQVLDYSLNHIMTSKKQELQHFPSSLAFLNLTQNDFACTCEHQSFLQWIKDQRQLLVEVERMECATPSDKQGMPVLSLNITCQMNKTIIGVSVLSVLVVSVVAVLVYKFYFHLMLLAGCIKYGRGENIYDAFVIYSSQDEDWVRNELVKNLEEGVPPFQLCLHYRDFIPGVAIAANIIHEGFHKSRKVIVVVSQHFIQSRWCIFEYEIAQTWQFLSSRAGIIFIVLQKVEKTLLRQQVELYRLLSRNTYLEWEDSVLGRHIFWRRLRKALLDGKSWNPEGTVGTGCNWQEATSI

Row | Binder | calculated ratio of MD-2 per TLR4 at maximal LPS activation [1] | calculated ratio of surface MD-2 per TLR4 [2] | binding result [3]
1 | B1 | ~5 MD-2 per TLR4 | 0.5 MD-2 per TLR4 | –
2 | B2 | – | – | no binding (tested: 1 or 5 µg/ml)
